US20240034813A1 (Janssen / Centocor, published 2024)

Assays:
[1] = biological target: T1, recombinant cMet/HGFR with c-terminal His-tag, Cy5-labeled (UniProt P08581 25-932, limits assumed, Cy5 label (reacted with Cy5 Mono NHS Ester; sites not stated)); experiment: competitive TR-FRET (Eu-amivantamab/Cy5-c-MET), EC50 ratio vs Reference Material; Ex. 11 drug product, 9 months at 5 C
T1 construct: Commercial protein; also called Cy5-c-MET; Cy5-labeled c-MET antigen; not shown: C-terminal His-tag
Excerpt: (§1) In this procedure, varying concentrations of unlabeled bispecific EGFR-cMet antibody sample compete with donor fluorophore (Europium (Eu) chelate) labeled bispecific EGFR-cMet antibody for binding to an acceptor fluorophore (Cy5)-labeled c-MET antigen. Excitation of the donor fluorophore results in a transfer of energy to the bound acceptor fluorophore (FRET process). The resultant FRET is detected by emission of light at 665 nm using a microplate reader capable of measuring time-resolved fluorescence. Sample dose response curves are compared to the Reference Material (RM).
(§2) c-MET Binding Materials and Methods. Certified commercial cMet, a recombinant cMet/HGFR with c-terminal His-tag is reacted with certified commercial Cy5 Mono NHS Ester to produce Cy5-labeled c-MET. Validated bispecific EGFR-cMet antibody is reacted with certified commercial Europium (Eu) chelate to produce Eu labeled bispecific EGFR-cMet antibody. […] Fluorescence is then measured by spectrophotometry at 665 nm, plotted against antibody concentration and analyzed by a four-parameter logistic model. The antibody concentration required to obtain half of the maximum fluorescence response (EC50) is determined for RM, assay control and samples. The potencies of assay control and samples are calculated based on the ratio of the sample (or control) and RM EC50 values and reported as a percentage activity relative to the RM.

[2] = biological target: T2, recombinant human EGFR/ErbB1/HER1 with C-terminal His tag, Cy5-labeled (human, UniProt P00533 25-645, Cy5 label (reacted with Cy5 Mono NHS Ester; sites not stated)); experiment: competitive TR-FRET (Eu-amivantamab/Cy5-EGFR), EC50 ratio vs Reference Material; Ex. 12 drug product with rHuPH20, 1 month at 40 C
T2 construct: Commercial protein; also called Cy5-EGFR; Cy5-labeled EGFR antigen; not shown: C-terminal His tag
Excerpt: as §1, with “EGFR” for “c-MET”, “RM.” for “Reference Material (RM).”
as §2, with “EGFR” for “c-MET”, “EGFR,” for “cMet,”, “human EGFR/ErbB1/HER1” for “cMet/HGFR”, “C-terminal His tag” for “c-terminal His-tag”, “EGFR.” for “c-MET.”, “Eu-labeled” for “Eu labeled”

[3] = biological target: T2, recombinant human EGFR/ErbB1/HER1 with …; experiment: competitive TR-FRET (Eu-amivantamab/Cy5-EGFR), EC50 ratio vs Reference Material; Ex. 3 acetate formulation with PS80, T0
Excerpt: as §1, with “EGFR” for “c-MET”, “RM.” for “Reference Material (RM).”
as §2, with “EGFR” for “c-MET”, “EGFR,” for “cMet,”, “human EGFR/ErbB1/HER1” for “cMet/HGFR”, “C-terminal His tag” for “c-terminal His-tag”, “EGFR.” for “c-MET.”, “Eu-labeled” for “Eu labeled”

[4] = biological target: T2, recombinant human EGFR/ErbB1/HER1 with …; experiment: competitive TR-FRET (Eu-amivantamab/Cy5-EGFR), EC50 ratio vs Reference Material; Ex. 11 drug product, 3 months at 40 C
Excerpt: as §1, with “EGFR” for “c-MET”, “RM.” for “Reference Material (RM).”
as §2, with “EGFR” for “c-MET”, “EGFR,” for “cMet,”, “human EGFR/ErbB1/HER1” for “cMet/HGFR”, “C-terminal His tag” for “c-terminal His-tag”, “EGFR.” for “c-MET.”, “Eu-labeled” for “Eu labeled”

[5] = biological target: T2, recombinant human EGFR/ErbB1/HER1 with …; experiment: competitive TR-FRET (Eu-amivantamab/Cy5-EGFR), EC50 ratio vs Reference Material; Ex. 2 Formulation 3 (acetate), T0, 40 C table
Excerpt: as §1, with “EGFR” for “c-MET”, “RM.” for “Reference Material (RM).”
as §2, with “EGFR” for “c-MET”, “EGFR,” for “cMet,”, “human EGFR/ErbB1/HER1” for “cMet/HGFR”, “C-terminal His tag” for “c-terminal His-tag”, “EGFR.” for “c-MET.”, “Eu-labeled” for “Eu labeled”

[6] = biological target: T2, recombinant human EGFR/ErbB1/HER1 with …; experiment: competitive TR-FRET (Eu-amivantamab/Cy5-EGFR), EC50 ratio vs Reference Material; Ex. 2 Formulation 2 (50 mM histidine), T0, 40 C table
Excerpt: as §1, with “EGFR” for “c-MET”, “RM.” for “Reference Material (RM).”
as §2, with “EGFR” for “c-MET”, “EGFR,” for “cMet,”, “human EGFR/ErbB1/HER1” for “cMet/HGFR”, “C-terminal His tag” for “c-terminal His-tag”, “EGFR.” for “c-MET.”, “Eu-labeled” for “Eu labeled”

[7] = biological target: T1, recombinant cMet/HGFR with c-terminal …; experiment: competitive TR-FRET (Eu-amivantamab/Cy5-c-MET), EC50 ratio vs Reference Material; Ex. 11 drug product, 0 months, 25 C table
Excerpt: as §1, §2

[8] = biological target: T1, recombinant cMet/HGFR with c-terminal …; experiment: competitive TR-FRET (Eu-amivantamab/Cy5-c-MET), EC50 ratio vs Reference Material; Ex. 12 drug product with rHuPH20, 3 months at 5 C
Excerpt: as §1, §2

[9] = biological target: T1, recombinant cMet/HGFR with c-terminal …; experiment: competitive TR-FRET (Eu-amivantamab/Cy5-c-MET), EC50 ratio vs Reference Material; Ex. 11 drug product, 6 months at 5 C
Excerpt: as §1, §2

cMET Binding activity relative to Reference Material (%) [1]: 101%
EGFR Binding activity relative to Reference Material (%) [2]: 41%
EGFR Binding % activity relative to RM [3]: 103%
EGFR Binding activity relative to Reference Material (%) [4]: 8%
EGFR Binding % activity relative to RM [5]: 103%
EGFR Binding % activity relative to RM [6]: 103%
cMET Binding activity relative to Reference Material (%) [7]: 85%
cMET Binding activity relative to Reference Material (%) [8]: 97%
cMET Binding activity relative to Reference Material (%) [9]: 86%
B1: amivantamab (bispecific antibody, human IgG1, kappa)
heavy 1: not shown
light 1: not shown
heavy 2: not shown
light 2: DIQMTQSPSSVSASVGDRVTITCRASQGISNWLAWFQHKPGKAPKLLIYAASSLLSGVPSRFSGSGSGTDFTLTISSLQPEDFATYYCQQANSFPITFGQGTRLEIKRTVAAPSVFIFPPSDEQLKSGTASVVCLLNNFYPREAKVQWKVDNALQSGNSQESVTEQDSKDSTYSLSSTLTLSKADYEKHKVYACEVTHQGLSSPVTKSFNRGEC
notes: The samples tested were high concentration (160 mg/mL) formulations, fresh or stored or stressed; also called JNJ-61186372; bispecific EGFR-cMet antibody
